# B1: CDC25A (parent)
# chain: TVAGKHQDLKYISPEIMASVLNGK
# B2: TEKT4 (parent)
# chain: LREKLLEAEQSLRNLEDIHMSLEK
# Variants of: B1
# Test: protein stability index of a GFP-peptide fusion (GPS, HEK-293T) (PSI 1-6); higher = more stable
# Details: c terminus: a fixed tail appended
# 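Further: lentivirally expressed fusions sorted by FACS into six bins by GFP to DsRed ratio, PSI derived from sequencing read proportions per bin multiplied by bin number.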
row,Variant,protein stability index
1,TVAGKHQDIKYISPEIMASVLNGK,3.25
2,TVAGKHQDEKYISPEIMASVLNGK,3.94
3,TVAGKHQDVKYISPEIMASVLNGK,3.27
4,TVAGKHQDHKYISPEIMASVLNGK,3.65
5,TVAGKHQDFKYISPEIMASVLNGK,3.1
6,TVAGKHQDTKYISPEIMASVLNGK,3.47
7,TVAGKHQDAKYISPEIMASVLNGK,3.44
8,TVAGKHQDNKYISPEIMASVLNGK,3.72
9,TVAGKHQDWKYISPEIMASVLNGK,2.81
10,TVAGKHQDSKYISPEIMASVLNGK,3.33
11,TVAGKHQDKKYISPEIMASVLNGK,3.74
12,TVAGKHQDQKYISPEIMASVLNGK,3.71
13,TVAGKHQDPKYISPEIMASVLNGK,3.37
14,TVAGKHQDGKYISPEIMASVLNGK,3.77
15,TVAGKHQDRKYISPEIMASVLNGK,3.51
16,TVAGDHQDLKYISPEIMASVLNGK,3.56
17,TVAGMHQDLKYISPEIMASVLNGK,3.01
18,TVAGNHQDLKYISPEIMASVLNGK,3.07
19,TVAGRHQDLKYISPEIMASVLNGK,3.2
20,TVAGHHQDLKYISPEIMASVLNGK,3.54
21,TVAGSHQDLKYISPEIMASVLNGK,3.5
22,TVAGCHQDLKYISPEIMASVLNGK,2.61
23,TVAGQHQDLKYISPEIMASVLNGK,3.53

row,Variant,protein stability index
1,TVAGWHQDLKYISPEIMASVLNGK,2.75
2,TVAGAHQDLKYISPEIMASVLNGK,3.45
3,TVAGPHQDLKYISPEIMASVLNGK,3.17
4,TVAGGHQDLKYISPEIMASVLNGK,3.6
5,TVAGTHQDLKYISPEIMASVLNGK,3.68
6,TVAGVHQDLKYISPEIMASVLNGK,3.21
7,TVAGFHQDLKYISPEIMASVLNGK,3.2
8,TVAGYHQDLKYISPEIMASVLNGK,3.03
9,TVAGEHQDLKYISPEIMASVLNGK,3.5
10,TVAGLHQDLKYISPEIMASVLNGK,3.06
11,TVAGIHQDLKYISPEIMASVLNGK,2.55
12,TVASKHQDLKYISPEIMASVLNGK,3.39
13,TVAPKHQDLKYISPEIMASVLNGK,3.44
14,TVAKKHQDLKYISPEIMASVLNGK,3.06
15,TVADKHQDLKYISPEIMASVLNGK,3.27
16,TVAFKHQDLKYISPEIMASVLNGK,2.38
17,TVAEKHQDLKYISPEIMASVLNGK,3.78
18,TVAAKHQDLKYISPEIMASVLNGK,2.82
19,TVAYKHQDLKYISPEIMASVLNGK,3.09
20,TVAVKHQDLKYISPEIMASVLNGK,3.38
21,TVACKHQDLKYISPEIMASVLNGK,2.82
22,TVANKHQDLKYISPEIMASVLNGK,3.54
23,TVAMKHQDLKYISPEIMASVLNGK,2.89

row,Variant,protein stability index
1,TVAWKHQDLKYISPEIMASVLNGK,2.27
2,TVALKHQDLKYISPEIMASVLNGK,3.16
3,TVAIKHQDLKYISPEIMASVLNGK,2.68
4,TVARKHQDLKYISPEIMASVLNGK,3.5
5,TVAQKHQDLKYISPEIMASVLNGK,3.42
6,TVAHKHQDLKYISPEIMASVLNGK,3.35
7,TVATKHQDLKYISPEIMASVLNGK,3.11
8,TVAGKHQPLKYISPEIMASVLNGK,2.91
9,TVAGKHQHLKYISPEIMASVLNGK,2.51
10,TVAGKHQRLKYISPEIMASVLNGK,2.28
11,TVAGKHQTLKYISPEIMASVLNGK,2.56
12,TVAGKHQQLKYISPEIMASVLNGK,2.5
13,TVAGKHQMLKYISPEIMASVLNGK,2.25
14,TVAGKHQELKYISPEIMASVLNGK,3.21
15,TVAGKHQLLKYISPEIMASVLNGK,2.05
16,TVAGKHQVLKYISPEIMASVLNGK,2.66
17,TVAGKHQFLKYISPEIMASVLNGK,1.87
18,TVAGKHQCLKYISPEIMASVLNGK,2.32
19,TVAGKHQILKYISPEIMASVLNGK,2.35
20,TVAGKHQNLKYISPEIMASVLNGK,2.62
21,TVAGKHQGLKYISPEIMASVLNGK,3.06
22,TVAGKHQSLKYISPEIMASVLNGK,2.63
23,TVAGKHQALKYISPEIMASVLNGK,2.65

row,Variant,protein stability index
1,TVAGKHQWLKYISPEIMASVLNGK,1.68
2,TVAGKHQYLKYISPEIMASVLNGK,1.9
3,TVAGKHQKLKYISPEIMASVLNGK,2.54
4,GVAGKHQDLKYISPEIMASVLNGK,3.06
5,PVAGKHQDLKYISPEIMASVLNGK,3.34
6,WVAGKHQDLKYISPEIMASVLNGK,2.06
7,DVAGKHQDLKYISPEIMASVLNGK,3.29
8,SVAGKHQDLKYISPEIMASVLNGK,3.14
9,HVAGKHQDLKYISPEIMASVLNGK,2.89
10,RVAGKHQDLKYISPEIMASVLNGK,2.52
11,KVAGKHQDLKYISPEIMASVLNGK,3.17
12,IVAGKHQDLKYISPEIMASVLNGK,2.6
13,NVAGKHQDLKYISPEIMASVLNGK,3.69
14,YVAGKHQDLKYISPEIMASVLNGK,3.42
15,VVAGKHQDLKYISPEIMASVLNGK,2.52
16,AVAGKHQDLKYISPEIMASVLNGK,3.23
17,CVAGKHQDLKYISPEIMASVLNGK,3.07
18,QVAGKHQDLKYISPEIMASVLNGK,3.22
19,FVAGKHQDLKYISPEIMASVLNGK,1.9
20,LVAGKHQDLKYISPEIMASVLNGK,2.15
21,EVAGKHQDLKYISPEIMASVLNGK,3.45
22,MVAGKHQDLKYISPEIMASVLNGK,2.34

# Variants of: B2
# Test: as above
# Details: c terminus: a fixed tail appended
row,Variant,protein stability index
1,LREKLLEAEQSLRNLEDIHMSLES,2.35
2,LREKLLEAEQSLRNLEDIHMSLEY,1.68
3,LREKLLEAEQSLRNLEDIHMSLET,2.98

# Source: the supplement of paper PMC10567573
